Target: Flag–Rab32 (human) (UniProt Q13637)
Test: co-IP

Sequence of Flag–Rab32 (human) (Q13637 whole entry): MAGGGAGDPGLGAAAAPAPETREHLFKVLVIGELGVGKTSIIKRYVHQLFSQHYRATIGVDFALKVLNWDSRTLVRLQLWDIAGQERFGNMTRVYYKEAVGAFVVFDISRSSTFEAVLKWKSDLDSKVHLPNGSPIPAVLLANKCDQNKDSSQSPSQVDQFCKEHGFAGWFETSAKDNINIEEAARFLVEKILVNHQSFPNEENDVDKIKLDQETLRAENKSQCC
Sequence of endogenous PKA holoenzyme (P13861 whole entry, one chain of several): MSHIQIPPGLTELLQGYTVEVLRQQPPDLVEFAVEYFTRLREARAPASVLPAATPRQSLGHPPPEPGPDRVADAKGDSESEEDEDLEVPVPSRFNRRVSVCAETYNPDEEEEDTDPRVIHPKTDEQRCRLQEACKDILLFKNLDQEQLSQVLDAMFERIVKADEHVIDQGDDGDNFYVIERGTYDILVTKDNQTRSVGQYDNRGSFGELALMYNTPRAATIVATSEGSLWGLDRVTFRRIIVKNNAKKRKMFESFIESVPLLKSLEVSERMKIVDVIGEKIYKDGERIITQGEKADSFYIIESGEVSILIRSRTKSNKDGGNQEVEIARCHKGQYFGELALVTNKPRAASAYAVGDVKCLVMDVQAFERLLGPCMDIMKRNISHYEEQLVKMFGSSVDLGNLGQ

## endogenous PKA holoenzyme (from UniProt P13861 1-404; P17612 1-351) (complex)
  fold enrichment of PKA activity in the immune complexes: 7.1 fold

From publication PMC2174006
